Assay results from paper doi:10.1101/686782 (bioRxiv, 2019).

B1: P. savastanoi FliQ (natural protein)
chain: MTPEVAVDLFREALWLTTVLVAILVVPSLLCGLLVAMFQAATQINEQTLSFLPRLLVMLVTLIVIGPWLLKIFMEYMLSLYTSIPTLIG
notes: also called FliQ5
B2: P. savastanoi FliP (natural protein)
chain: ADPLSIPAITLSNGADGQQEYSVSLQILLIMTALSFIPAFVMLMTSFTRIIIVFSILRQALGLQQTPSNQILTGMALFLTMFIMAPVFDRVNQDALQPYLAEKLSAQDAVAKAQVPIKDFMLAQTRTSDLELFMRLSKRTDIPTPDAAPLTILVPAFVISELKTAFQIGFMIFIPFLIIDLVVASVLMAMGMMMLSPLIISLPFKIMLFVLVDGWALIVGTLAGSFGGV

Molecular target: the molecule itself
Assay: cryo-EM structure

Protein	stoichiometry N
B1	5
B2	5
